Laboratory results reported in article PMC5563082 (2017).

T1: human NL1(+A1+A2–B)_(ECTO), immobilised for SPR (human, biotin on the Avitag (in vivo biotinylation by BirA))
T1 chain: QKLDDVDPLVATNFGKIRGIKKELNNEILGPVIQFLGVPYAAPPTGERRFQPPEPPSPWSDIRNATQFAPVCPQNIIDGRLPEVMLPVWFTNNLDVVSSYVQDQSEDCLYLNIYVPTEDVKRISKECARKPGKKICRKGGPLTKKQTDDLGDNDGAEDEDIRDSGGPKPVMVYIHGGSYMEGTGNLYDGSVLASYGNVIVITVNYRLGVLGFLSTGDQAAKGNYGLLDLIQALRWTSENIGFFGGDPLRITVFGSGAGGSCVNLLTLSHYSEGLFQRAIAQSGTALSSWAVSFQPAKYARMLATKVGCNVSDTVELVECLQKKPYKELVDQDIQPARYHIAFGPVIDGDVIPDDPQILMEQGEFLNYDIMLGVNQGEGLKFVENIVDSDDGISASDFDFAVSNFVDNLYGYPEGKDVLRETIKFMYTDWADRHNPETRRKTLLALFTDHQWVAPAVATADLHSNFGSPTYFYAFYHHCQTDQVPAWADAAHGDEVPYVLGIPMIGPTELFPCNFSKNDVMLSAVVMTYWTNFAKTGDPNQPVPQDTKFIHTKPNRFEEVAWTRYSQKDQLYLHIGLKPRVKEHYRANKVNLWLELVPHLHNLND

T2: human NL1(+A2–B)_(ECTO), immobilised for SPR (human, biotin on the Avitag (in vivo biotinylation by BirA))
T2 chain: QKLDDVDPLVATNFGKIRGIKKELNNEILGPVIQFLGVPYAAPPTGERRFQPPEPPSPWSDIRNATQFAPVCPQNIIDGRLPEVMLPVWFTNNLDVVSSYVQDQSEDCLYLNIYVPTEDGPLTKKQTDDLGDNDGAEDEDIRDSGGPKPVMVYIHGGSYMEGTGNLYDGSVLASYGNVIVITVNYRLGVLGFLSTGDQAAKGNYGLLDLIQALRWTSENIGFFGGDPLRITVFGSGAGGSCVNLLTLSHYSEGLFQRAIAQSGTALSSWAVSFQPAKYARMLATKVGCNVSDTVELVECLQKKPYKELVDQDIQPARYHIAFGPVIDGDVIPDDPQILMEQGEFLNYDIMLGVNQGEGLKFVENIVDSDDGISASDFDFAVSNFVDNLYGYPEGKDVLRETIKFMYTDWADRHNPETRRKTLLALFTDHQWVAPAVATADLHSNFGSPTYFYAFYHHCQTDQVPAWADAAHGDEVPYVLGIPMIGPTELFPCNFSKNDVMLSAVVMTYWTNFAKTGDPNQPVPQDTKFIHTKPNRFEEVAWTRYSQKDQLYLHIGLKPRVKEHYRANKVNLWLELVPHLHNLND

T3: human NL1(+A1–B)_(ECTO), immobilised for SPR (human, biotin on the Avitag (in vivo biotinylation by BirA))
T3 chain: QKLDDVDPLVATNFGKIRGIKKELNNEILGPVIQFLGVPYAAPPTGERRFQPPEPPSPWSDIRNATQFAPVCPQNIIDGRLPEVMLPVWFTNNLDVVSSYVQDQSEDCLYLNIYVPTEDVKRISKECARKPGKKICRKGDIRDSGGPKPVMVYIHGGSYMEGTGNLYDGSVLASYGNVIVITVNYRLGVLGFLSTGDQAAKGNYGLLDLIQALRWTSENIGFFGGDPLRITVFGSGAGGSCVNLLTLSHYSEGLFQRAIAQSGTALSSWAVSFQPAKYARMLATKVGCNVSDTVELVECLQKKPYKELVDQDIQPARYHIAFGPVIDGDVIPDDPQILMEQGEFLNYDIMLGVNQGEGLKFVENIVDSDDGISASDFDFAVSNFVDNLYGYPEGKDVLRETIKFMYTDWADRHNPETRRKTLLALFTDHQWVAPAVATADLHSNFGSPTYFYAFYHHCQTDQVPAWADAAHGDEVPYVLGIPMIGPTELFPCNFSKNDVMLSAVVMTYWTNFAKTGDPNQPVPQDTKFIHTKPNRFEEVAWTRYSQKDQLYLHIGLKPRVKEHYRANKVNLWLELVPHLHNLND

T4: human NL4_(ECTO) (NL4(X); Gln42-Glu602), immobilised for SPR (human, UniProt Q8N0W4-1 42-602, biotin on the Avitag (in vivo biotinylation by BirA))
T4 chain: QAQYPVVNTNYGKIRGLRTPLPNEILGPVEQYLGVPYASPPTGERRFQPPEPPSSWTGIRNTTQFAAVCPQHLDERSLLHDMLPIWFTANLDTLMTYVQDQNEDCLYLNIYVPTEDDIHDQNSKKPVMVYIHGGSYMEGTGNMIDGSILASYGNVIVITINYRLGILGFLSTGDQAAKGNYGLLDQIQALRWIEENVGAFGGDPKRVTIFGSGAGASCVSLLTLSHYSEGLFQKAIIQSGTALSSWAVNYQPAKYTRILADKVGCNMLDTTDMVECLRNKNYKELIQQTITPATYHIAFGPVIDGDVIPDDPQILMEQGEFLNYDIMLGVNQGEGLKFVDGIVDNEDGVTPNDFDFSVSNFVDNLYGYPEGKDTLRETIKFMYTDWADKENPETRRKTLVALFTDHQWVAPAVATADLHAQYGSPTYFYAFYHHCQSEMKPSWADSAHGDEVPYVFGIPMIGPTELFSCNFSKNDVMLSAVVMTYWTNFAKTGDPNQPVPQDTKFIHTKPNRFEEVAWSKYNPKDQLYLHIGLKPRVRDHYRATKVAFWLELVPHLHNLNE


How the values were obtained:
Test in all cases: SPR
[1] = target: T1, human NL1(+A1+A2–B)_(ECTO), immobilised …
[2] = target: T2, human NL1(+A2–B)_(ECTO), immobilised …
[3] = target: T3, human NL1(+A1–B)_(ECTO), immobilised …
[4] = target: T4, human NL4_(ECTO) (NL4(X)); …
[5] = target: human NL3(–A)_(ECTO) (Gln38-Asp636), immobilised for SPR (human, UniProt Q9NZ94-1 38-636, –A: nothing between Asp152 and Asp193, biotin on the Avitag (in vivo biotinylation by BirA))
Sequence of human NL3(–A)_(ECTO) (Gln38-Asp636), immobilised for SPR (Q9NZ94 other isoform, or with tags, fused parts or gaps –A: nothing between Asp152 and Asp193): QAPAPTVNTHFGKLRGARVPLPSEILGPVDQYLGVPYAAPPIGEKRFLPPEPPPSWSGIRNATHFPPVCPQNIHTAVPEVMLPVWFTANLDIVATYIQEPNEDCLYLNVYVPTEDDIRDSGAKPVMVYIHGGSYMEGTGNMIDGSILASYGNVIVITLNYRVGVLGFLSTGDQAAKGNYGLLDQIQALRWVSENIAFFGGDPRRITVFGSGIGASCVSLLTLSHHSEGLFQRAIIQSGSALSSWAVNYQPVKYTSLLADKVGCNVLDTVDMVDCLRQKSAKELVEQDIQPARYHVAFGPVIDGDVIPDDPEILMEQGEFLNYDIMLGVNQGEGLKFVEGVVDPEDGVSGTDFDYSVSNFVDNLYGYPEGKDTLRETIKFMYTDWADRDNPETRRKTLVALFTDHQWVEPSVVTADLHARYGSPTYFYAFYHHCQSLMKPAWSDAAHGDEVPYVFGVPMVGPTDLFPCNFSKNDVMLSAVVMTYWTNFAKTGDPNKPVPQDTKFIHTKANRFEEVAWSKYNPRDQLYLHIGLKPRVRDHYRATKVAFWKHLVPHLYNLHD

| Binder | Kd [1] [nM] | Kd [2] [nM] | Kd [3] [nM] | Kd [4] [nM] | Kd [5] [nM] |
| --- | --- | --- | --- | --- | --- |
| human β-neurexin-1 LNS6 domain lacking SS4 (β-NRX1_(LNS6)(–4); His85-Val265) (domain or fragment) not shown | 784 | 795 | 766 | 2490 |  |
| human β-neurexin-1 LNS6 domain with SS4 (β-NRX1_(LNS6)(+4)) (domain or fragment) not shown | 2710 | 2750 | 2820 | 9660 | 22100 |

Further lines, results first:

| Kd [1] [nM] | Kd [2] [nM] | Kd [3] [nM] | Kd [4] [nM] | Kd [5] [nM] | Binder |
| --- | --- | --- | --- | --- | --- |
| 1410 | 1460 | 1200 | 14400 | 27600 | human MDGA2 extracellular domain (MDGA2_(ECTO); Gln21-Lys927) (domain or fragment) QGVYAPPTVRIVHSGLACNIEEERYSERVYTIREGETLELTCLVTGHPRPQIRWTKTAGSASDRFQDSSVFNETLRITNIQRHQGGRYYCKAENGLGSPAIKSIRVDVYYLDDPVVTVHQSIGEAKEQFYYERTVFLRCVANSNPPVRYSWRRGQEVLLQGSDKGVEIYEPFFTQGETKILKLKNLRPQDYANYSCIASVRNVCNIPDKMVSFRLSNKTASPSIKLLVDDPIVVNPGEAITLVCVTTGGEPAPSLTWVRSFGTLPEKTVLNGGTLTIPAITSDDAGTYSCIANNNVGNPAKKSTNIIVRALKKGRFWITPDPYHKDDNIQIGREVKISCQVEAVPSEELTFSWFKNGRPLRSSERMVITQTDPDVSPGTTNLDIIDLKFTDFGTYTCVASLKGGGISDISIDVNISSSTVPPNLTVPQEKSPLVTREGDTIELQCQVTGKPKPIILWSRADKEVAMPDGSMQMESYDGTLRIVNVSREMSGMYRCQTSQYNGFNVKPREALVQLIVQYPPAVEPAFLEIRQGQDRSVTMSCRVLRAYPIRVLTYEWRLGNKLLRTGQFDSQEYTEYAVKSLSNENYGVYNCSIINEAGAGRCSFLVTGKAYAPEFYYDTYNPVWQNRHRVYSYSLQWTQMNPDAVDRIVAYRLGIRQAGQQRWWEQEIKINGNIQKGELITYNLTELIKPEAYEVRLTPLTKFGEGDSTIRVIKYSAPVNPHLREFHCGFEDGNICLFTQDDTDNFDWTKQSTATRNTKYTPNTGPNADRSGSKEGFYMYIETSRPRLEGEKARLLSPVFSIAPKNPYGPTNTAYCFSFFYHMYGQHIGVLNVYLRLKGQTTIENPLWSSSGNKGQRWNEAHVNIYPITSFQLIFEGIRGPGIEGDIAIDDVSIAEGECAKQDLATK |
| 3050 | 3210 | 2080 | 14700 | 14600 | human MDGA1 extracellular domain (MDGA1_(ECTO); Gln19-Lys925) (domain or fragment) QGVYAPAQAQIVHAGQACVVKEDNISERVYTIREGDTLMLQCLVTGHPRPQVRWTKTAGSASDKFQETSVFNETLRIERIARTQGGRYYCKAENGVGVPAIKSIRVDVQYLDEPMLTVHQTVSDVRGNFYQEKTVFLRCTVNSNPPARFIWKRGSDTLSHSQDNGVDIYEPLYTQGETKVLKLKNLRPQDYASYTCQVSVRNVCGIPDKAITFRLTNTTAPPALKLSVNETLVVNPGENVTVQCLLTGGDPLPQLQWSHGPGPLPLGALAQGGTLSIPSVQARDSGYYNCTATNNVGNPAKKTVNLLVRSMKNATFQITPDVIKESENIQLGQDLKLSCHVDAVPQEKVTYQWFKNGKPARMSKRLLVTRNDPELPAVTSSLELIDLHFSDYGTYLCMASFPGAPVPDLSVEVNISSETVPPTISVPKGRAVVTVREGSPAELQCEVRGKPRPPVLWSRVDKEAALLPSGLPLEETPDGKLRLERVSRDMSGTYRCQTARYNGFNVRPREAQVQLNVQFPPEVEPSSQDVRQALGRPVLLRCSLLRGSPQRIASAVWRFKGQLLPPPPVVPAAAEAPDHAELRLDAVTRDSSGSYECSVSNDVGSAACLFQVSAKAYSPEFYFDTPNPTRSHKLSKNYSYVLQWTQREPDAVDPVLNYRLSIRQLNQHNAVVKAIPVRRVEKGQLLEYILTDLRVPHSYEVRLTPYTTFGAGDMASRIIHYTEPINSPNLSDNTCHFEDEKICGYTQDLTDNFDWTRQNALTQNPKRSPNTGPPTDISGTPEGYYMFIETSRPRELGDRARLVSPLYNASAKFYCVSFFYHMYGKHIGSLNLLVRSRNKGALDTHAWSLSGNKGNVWQQAHVPISPSGPFQIIFEGVRGPGYLGDIAIDDVTLKKGECPRKQTDPNK |
